Data: the supplement of paper PMC9112550, “Optimization of the antimicrobial peptide Bac7 by deep mutational scanning” (BMC Biology, 2022)

Test system: Escherichia coli TOP10
Assay: shrunken log2 fold change of peptide-encoding DNA abundance (4.5 h post-induction vs induction); higher = less antimicrobial activity (less host growth inhibition)
Details: time post-induction: 4.5 h; library: site-saturation at positions 5, 18, 19, 20
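Further: peptides expressed intracellularly from a pBAD plasmid library in pooled LB shake-flask culture, induced with 0.3% L-arabinose, DNA abundance read by NGS, three biological replicates, DESeq2 with apeglm shrinkage.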

Sequence | shrunken log2 fold change
RRIRQRPPRLPRPRPRPFWYPRP | -0.171
RRIRSRPPRLPRPRPRPWWTPRP | -0.127
RRIRLRPPRLPRPRPRPSGDPRP | 0.0305
RRIRQRPPRLPRPRPRPQMWPRP | 0.0113
RRIRQRPPRLPRPRPRPDWSPRP | -0.0861
RRIRARPPRLPRPRPRPHRAPRP | 0.216
RRIRKRPPRLPRPRPRPVYVPRP | -0.0394
RRIRERPPRLPRPRPRPEAPPRP | 0.406
RRIRARPPRLPRPRPRPSPIPRP | -0.0445
RRIRYRPPRLPRPRPRPAYYPRP | -0.318
RRIRIRPPRLPRPRPRPNWSPRP | 0.0776
RRIRARPPRLPRPRPRPTLQPRP | 0.694
RRIRVRPPRLPRPRPRPHRQPRP | -0.384
RRIRNRPPRLPRPRPRPLIDPRP | -0.0832
RRIRMRPPRLPRPRPRPDVFPRP | 0.387
RRIRFRPPRLPRPRPRPQQCPRP | -0.181
RRIRTRPPRLPRPRPRPPWHPRP | 0.118
RRIRNRPPRLPRPRPRPNIQPRP | -0.748
RRIRYRPPRLPRPRPRPPILPRP | -0.498
RRIRYRPPRLPRPRPRPVIEPRP | -0.424
RRIRQRPPRLPRPRPRPYTQPRP | -0.25
RRIRVRPPRLPRPRPRPYFDPRP | -0.609
RRIRERPPRLPRPRPRPMLWPRP | -0.0445
RRIRHRPPRLPRPRPRPECHPRP | -0.303
RRIRRRPPRLPRPRPRPSSLPRP | -0.134

Sequence | shrunken log2 fold change
RRIRTRPPRLPRPRPRPTGVPRP | 0.077
RRIRSRPPRLPRPRPRPTIMPRP | -0.508
RRIRMRPPRLPRPRPRPGTCPRP | 0.851
RRIRRRPPRLPRPRPRPDTAPRP | -0.0709
RRIRSRPPRLPRPRPRPTEAPRP | 0.0706
RRIRDRPPRLPRPRPRPYWLPRP | -0.236
RRIRWRPPRLPRPRPRPYHEPRP | -0.123
RRIRDRPPRLPRPRPRPFVQPRP | -0.194
RRIRARPPRLPRPRPRPSLCPRP | 0.276
RRIRWRPPRLPRPRPRPWFHPRP | -0.125
RRIRLRPPRLPRPRPRPECWPRP | 0.587
RRIRVRPPRLPRPRPRPKAEPRP | -0.00229
RRIRSRPPRLPRPRPRPAMCPRP | -0.185
RRIRPRPPRLPRPRPRPAGHPRP | 0.0291
RRIRERPPRLPRPRPRPVRLPRP | 0.0832
RRIRIRPPRLPRPRPRPKFIPRP | -0.375
RRIRGRPPRLPRPRPRPYKLPRP | -0.481
RRIRRRPPRLPRPRPRPRWCPRP | 0.0597
RRIRIRPPRLPRPRPRPSQAPRP | -0.244
RRIRQRPPRLPRPRPRPGFNPRP | -0.119
RRIRYRPPRLPRPRPRPSMLPRP | -1.07
RRIRYRPPRLPRPRPRPLREPRP | 0.483
RRIRFRPPRLPRPRPRPAHMPRP | 0.129
RRIRHRPPRLPRPRPRPKMWPRP | 0.451
RRIRTRPPRLPRPRPRPFDIPRP | -0.018

Sequence | shrunken log2 fold change
RRIRFRPPRLPRPRPRPVRIPRP | -0.0436
RRIRTRPPRLPRPRPRPLGMPRP | 0.257
RRIRYRPPRLPRPRPRPICRPRP | -0.226
RRIRLRPPRLPRPRPRPNASPRP | 0.0769
RRIRDRPPRLPRPRPRPTHEPRP | 1.09
RRIRARPPRLPRPRPRPYWYPRP | -0.763
RRIRSRPPRLPRPRPRPMTHPRP | -0.469
RRIRYRPPRLPRPRPRPKMTPRP | -0.728
RRIRYRPPRLPRPRPRPEPPPRP | 0.49
RRIRKRPPRLPRPRPRPFGRPRP | -0.209
RRIRYRPPRLPRPRPRPYRSPRP | 0.0135
RRIRCRPPRLPRPRPRPNPQPRP | -0.359
RRIRFRPPRLPRPRPRPFEIPRP | -0.0265
RRIRQRPPRLPRPRPRPADEPRP | -0.101
RRIRMRPPRLPRPRPRPIHLPRP | -0.209
RRIRERPPRLPRPRPRPTDIPRP | -0.0479
RRIRDRPPRLPRPRPRPSLCPRP | -0.0148
RRIRYRPPRLPRPRPRPKLMPRP | -0.115
RRIRLRPPRLPRPRPRPPQSPRP | 0.0818
RRIRQRPPRLPRPRPRPYVMPRP | -0.108
RRIRHRPPRLPRPRPRPEAEPRP | 0.409
RRIRCRPPRLPRPRPRPYESPRP | 0.0203
RRIRGRPPRLPRPRPRPAESPRP | 0.764
RRIRVRPPRLPRPRPRPCQKPRP | -0.0265
RRIRFRPPRLPRPRPRPIIKPRP | -0.696

Sequence | shrunken log2 fold change
RRIRIRPPRLPRPRPRPNPMPRP | -0.169
RRIRMRPPRLPRPRPRPVNTPRP | 0.0779
RRIRHRPPRLPRPRPRPNSFPRP | 0.00867
RRIRARPPRLPRPRPRPSWHPRP | 0.0482
RRIRRRPPRLPRPRPRPMVWPRP | 0.686
RRIRFRPPRLPRPRPRPPHQPRP | 0.301
RRIRFRPPRLPRPRPRPIHCPRP | -0.138
RRIRFRPPRLPRPRPRPINAPRP | 0.00976
RRIRQRPPRLPRPRPRPDKDPRP | -0.0597
RRIRVRPPRLPRPRPRPVKFPRP | -0.133
RRIRTRPPRLPRPRPRPQHAPRP | -0.0164
RRIRHRPPRLPRPRPRPIPIPRP | -0.115
RRIRLRPPRLPRPRPRPPMNPRP | -0.114
RRIRPRPPRLPRPRPRPEVQPRP | 0.0715
RRIRQRPPRLPRPRPRPAWNPRP | -0.206
RRIRRRPPRLPRPRPRPKHNPRP | 0.396
RRIRARPPRLPRPRPRPQDMPRP | -0.322
RRIRFRPPRLPRPRPRPPMGPRP | -0.00833
RRIRDRPPRLPRPRPRPQTHPRP | 0.269
RRIRRRPPRLPRPRPRPFENPRP | 0.0967
RRIRCRPPRLPRPRPRPRSQPRP | 0.0629
RRIRTRPPRLPRPRPRPYMQPRP | -0.298
RRIRFRPPRLPRPRPRPCQNPRP | 0.0482
RRIRARPPRLPRPRPRPIVFPRP | -0.0956
RRIRERPPRLPRPRPRPTCQPRP | 0.00216

Sequence | shrunken log2 fold change
RRIRNRPPRLPRPRPRPKKQPRP | -0.0788
RRIRWRPPRLPRPRPRPWNTPRP | -0.195
RRIRDRPPRLPRPRPRPSTPPRP | -0.238
RRIRGRPPRLPRPRPRPCKPPRP | 0.108
RRIRWRPPRLPRPRPRPDKEPRP | 0.0411
RRIRTRPPRLPRPRPRPIGVPRP | -0.0262
RRIRPRPPRLPRPRPRPAEMPRP | 0.189
RRIRDRPPRLPRPRPRPKWLPRP | 0.223
RRIRGRPPRLPRPRPRPQPPPRP | 0.998
RRIRLRPPRLPRPRPRPFANPRP | 0.0335
RRIRTRPPRLPRPRPRPSYVPRP | -0.305
RRIRNRPPRLPRPRPRPLHYPRP | -0.147
RRIRGRPPRLPRPRPRPWFDPRP | -0.0883
RRIRPRPPRLPRPRPRPIFQPRP | 0.0149
RRIRIRPPRLPRPRPRPYKIPRP | -0.688
RRIRRRPPRLPRPRPRPIDWPRP | 0.122
RRIRNRPPRLPRPRPRPHMIPRP | -0.168
RRIRHRPPRLPRPRPRPIFFPRP | 0.0211
RRIRDRPPRLPRPRPRPYAEPRP | 0.247
RRIRKRPPRLPRPRPRPDWGPRP | 2.83
RRIRRRPPRLPRPRPRPKGLPRP | 0.238
RRIRIRPPRLPRPRPRPWHIPRP | 0.0542
RRIRFRPPRLPRPRPRPVQFPRP | -0.652
RRIRLRPPRLPRPRPRPSEWPRP | -0.0637
RRIRYRPPRLPRPRPRPHDDPRP | 0.0514
